# In US20030108521A1 (published 2003):
# T1: F/IX delta 111-140 (human; human adenovirus type 5, UniProt P03372 553-595)
# T1 construct: domain: F domain; N-terminally F-tagged pIX truncated after residue 110 (lacks half of the leucine-repeat)
# T1 sequence: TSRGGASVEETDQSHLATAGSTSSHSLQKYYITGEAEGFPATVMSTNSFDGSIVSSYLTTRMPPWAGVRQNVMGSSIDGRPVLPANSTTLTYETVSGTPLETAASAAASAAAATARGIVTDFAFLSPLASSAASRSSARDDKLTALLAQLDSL
# B1: non-tagged wild type adenovirus type 5 protein IX (other)
# chain: MSTNSFDGSIVSSYLTTRMPPWAGVRQNVMGSSIDGRPVLPANSTTLTYETVSGTPLETAASAAASAAAATARGIVTDFAFLSPLASSAASRSSARDDKLTALLAQLDSLTRELNVVSQQLLDLRQQVSALKASSPPNAV
# notes: tested in cell extracts; also called wt pIX; untagged wt pIX
# Biological target: T1, F/IX delta 111-140
# Experiment: co-immunoprecipitation with anti-F antibody from A549 cell extracts, Western blot with anti-pIX
binder,measurement,value
B1,binding result,no binding
